From the DeepSol protein solubility set

Assay: soluble on expression in E. coli; label from the status in PepcDB or PDB records

Row | Sequence | soluble on expression in E. coli
1 | MGSDKIHHHHHHMLRAGWFFEGIQDNDLLKLKEACKAFNLDGVLLSSLVLSRLYGVCYVLLGTVDGGDLDQPFDLNKLGIGRLEFFTVLKKKYIEADTSKYLSPKEAGGLLKQPEFYKLKLDGKSTQRIHHTRLYKFGHADVVNEEPVSVLQEVYEDLLDHAAVKKASASLVHESKIDVIRTPNLVDKIKEDMKSVAERFLSVGLLKGLNGMIVLDKEEEYDSKSYSFGGLPDLMREFSIQAAGAADMPYTILFGQSPAGMNATGEHDTRNYYDSIATKQTWSLKPFMMKLLRVIVQTTFGRQIPSLDVVFNPLWQLDAKVRSEVEKANAERDSKYLEMGIITEPQIAKQLVIDGVYSVIDEAHIKELETMVKLNDNDNSDPETTPPAGEET | not soluble
2 | MFENTKKALETFRTAIECVKCKKPRGDLQYLGSSCKHAYCWECIATFQQKPSGKRSSVARHMCPSCAFPLDTSKITEAHMLKTCFDTLSELNDLLQKVGTTSLTQAEFACTQNIFNKEKTPADAVEKFLETQAHMPDEMGQLGEEDDDLMCKDENRENSNSPELDIFHDYSKEASPTRNSTKRPSTVSVHERKPKRTLTEILQRRSTAPAATGVATYAQAFGSSSNPVKAEIIEEDIFSKAIPLTKRQASMSASAKKQPKLEPEEPEEVPSTSRSRKNSIKSDKIERRSQSPMSFGEKSMSVKSEQRRSSYGTRRGEAVLVNSIRNNRIPQLRSAVEAGTCVNEKEDGKTPLYVAVENSSLEAVKILVEAGAVINASCGSTLETTLHEAVRRQNTQIVEYLLSKGASIKIRNIAGKTVEEMAKSDPKIRKIIEKFKTEQRVLQPVVAPPKSRLHFVQLIDEKMLTESEKRKLPGKINIVPADMDSPTHVVVTVDLKTRVLNINKEHIGEILKAIIKSGMIVSRDWLRACIIDPSKVDDDRSYMVQKVRWMEGEVFENTIEQWKKTITKMQPKLFAGCKFFIPKPKYNFLDRPALFEIIRSAGGQAAAREPIIDEKDPPPYHNANLKPNFVLYSLTHDIGDKFRDCTKYNLVSEQWLIEAILGCSITTPPH | not soluble
3 | MDLMAYWLCITNEDNWKVIKEKKIWGVAERYKNTINKVKVGDKLIIYEIQRSGKDYKPPYIRGVYEVVSEVYKDSSKIFKPTPRNPNEKFPYRVKLKEIKVFEPPINFKELIPKLKFITNKKRWSGHLMGKAMREIPEEDYKLIVGN | soluble
4 | RGVAVYVDHVDGDIHPVTYELIGKARELAAKINHPVYAVFIGQNIKDKAEELLHYGVDEVFVYDDAALKYFRIEPYTKAFEDFINKNKPSTILVGATTVGRSLAPRIAARFRTGLTADCTILDMKENTDLVQIRPAFGGNIMAQIINPNNRPQLATVRYKVMNAPVRSEEKKGKITLCSLKDITSNIEVLKVVKKQVEEN | not soluble
5 | MNNFFKHTLETHTPQSMSKITSYIREDIKNSNIENGIVVVYCPHTTAGITINENADPDVVKDLIYGFEKVYPTNDHKYRHFEGNSHSHLKSSTVGVSQQLILHRGRLILGQWQDVYFCDFDGPRNRTFYVKILEGLEHHHHHH | not soluble
6 | MFERFDSDRSRYASLGVVSSLPSGLIDSIWLIIDLNLKGVIPLNDLLHFDLLNNNGKVTVHFSQENSSVEMAIDLPFSYSTAYPSRIFAFDDGHRETILLPAEMLES | soluble
7 | MCNDTATPQLEELVTTVANQLMTVDAATSAEVSQRVLAYLVEQLGVDVSFLRHNDRDRRATRLVAEWPPRLNIPDPDPLRLIYFADADPVFALCEHAKEPLVFRPEPATEDYQRLIEEARGVPVTSAAAVPLVSGEITTGLLGFIKFGDRKWLEHHHHHH | not soluble
8 | MRREKTMDTLIRSIMIKSKRKMDAKVAQFGLTTQQARVLGFLNDNAANEIIQKDLQRIFQTRGASITSLIQGLEKKQLISRKPSLRDGREKVVTLTKEGKDIVDEFNASFPREDDKAKKILSADEYKTFIELLSKIDDQTDLEHHHHHH | soluble
9 | MGSDKIHHHHHHMNLRQLKYFLATAELGQVSRAASELSISQSSVTTAIRELEQSMGTTLFNRTAHGMDLTPTGRDLMSAARDVMEKVQIAQDIGQNHSDVTGTINIAATYTVCGYFLPYHLDRLSHRFPNLTINISELNRESIEEGLISNRFDVAVILTSNTSNPELATQTLMRSHRRLWVPQNHPLAGREFASFEDVAAQDYIMLTVDEAANTSMKYWGPTGLMPRVRMRTSSTEAVRSMVANGLGVTILSDMVYRPWSLEGRRISTVVMDREIPSMDVGLAWRRNQEMPNAARHFVDYFRNAYLSPQMAHTAWRG | not soluble
10 | MRRLLLASSLLTLLAGCANHVIDPHGYDETGTAAYYGTRHHGNRTASGEPFNQNALTAAHRQLPFGTRVKVTNLNNDKSVIVRVNDRGPHTRGRLIDVSREAAEQLGMLRSGTAPVRVQALD | not soluble
11 | MPFRTIARLNPAKPKAGEEFRLQVVAQHPNEPGTRRDAEGKLIPAKYINLVEVYFEGEKVAEARPGPSTSANPLYAFKFKAEKAGTFTIKLKDTDGDTGEASVKLELV | soluble
12 | MGSDKIHHHHHHMSIFANLFKKQADADAKVVGNVEDFVSLTRVYFQSVIAVNLGITNIRFLPDVANFKRLFKVATQGGKLGLAEKSASRKMLMQDYGISESFFKEIDTSIKKNCRTQNDVQAYLFMYQGFSSDLMMLMGNLMQWKFRMPAIFKKALRSMTEKTVHDVCTKTVWKADDVHKTAAAVRQYKERLGFSEQWMSEYVYNIVLLAKKEPKHKDEEAKAK | not soluble
13 | MGSDKIHHHHHHMSLAVVYSRASMGVQAPLVTIEVHLSNGKPAFTLVGLPEKTVTEAQGRVRSALLNAQFKYPAKRITVNLAPADLPKEGGRFDLPIALGILAASEQINAKKLQQFEFVAELALTGELRGVHGVIPAILAGQKSKRQLIVAQQNANEASLVSQHETFFARNLLEVVQFLNDDSSLPSSTTLCMQSAVDFSPQSNKDLTDIIGQQHAKRALMIAAAGQHNLLFLGPPGTGKTMLASRLTGLLPDMTDQEAIETASVTSLVQNELNFQNWKQRPFRAPHHSASSPALVGGGTIPKPGEISLAHNGVLFLDELPEFERRVLDALRQPLESGEIIISRANAKIQFPARFQLVAAMNPSPTGHYTGIHNRTSPQQVLRYLNRLSGPFLDRFDLSIEVPLLPQGALQNTEDRGETTAQVKEKVLRVREIQLARAGKVNAYLTGKEIERDCKLTEQDALFLENTLTRLGLSVRAYHRILKVARTIADLNGDSDIKQNHLAEALSYRAMDRLLRKLSDQ | not soluble
14 | MGSDKIHHHHHHLLPKYNILTEDQVQKIHENTMKILEEIGIEFEYEPALEVFRREGQKVEGKRVYLTREFVESKLKSAPAEFTLHARNPENNVVIGGDNIVFMPGYGAPFIYELDGSRRKTTLQDYENFAKLAGASKNMHLSGGTMAEPQDIPDGVRHLQMLYSSIKNSDKCFMGSAEGKERAEDSVEIAAILFGGKDVIKEKPVLVSLINSLTPLKYDERMLGALMAYAEAGQAVIIASLVMAGSTGPASLAGTLSLQNAEVLAGISLAQSINPGTPVIYGSTSALSDMRSGSLSIGSPECALFISASAQLARFYGVPSRSGGGLNDSKTVDAQAGYESMMTLMAANLTGVNFVLHTAGILQYFMAMSYEKFIMDDEIAGMLLHYMKGYTFDEDGMAFDVIEKVGPGGHFLTQKHTRKNHKREFYTPTLSDRSAYDTWAKEKLETKQRAHARWQQILANYVPPALDPEIDAKLQAFIAQRGKEVGEE | not soluble
15 | MGHHHHHHSHLRYMKESQVLLTLTNPVENLTHVTLFECEEGDPDDINSTAKVVVPPKELVLAGKDAAAEYDELAEPQDFQDDPDIIAFRKANKVGIFIKVTPQREEGEVTVCFKMKHDFKNLAAPIRPIEESDQGTEVIWLTQHVELSLGPLLP | soluble
16 | MQAGPALMRILPISTIKGKLNEFVDAVSSTQDQITITKNGAPAAVLVGADEWESLQETLYWLAQPGIRESIAEADADIASGRTYGEDEIRAEFGVPRRPHDYKDDDDK | soluble
17 | MIDMFHINIPFKKDVIIEMGDCGFVDFAKLAEKTELKIACGNVEFSVVNDQKKVRTDDLYHPWSTIPSSYTDIACKVFDAEPRANVFWGYLQLKASPAKVMQGHNVYGSEDFRLCVEYLLDSLQKAQPELWELLDVGLAEMTRIDCTYSIKCANPDILRQTIKQMGNVSNRYIKPARNSDFETTLYFNRATKANPGAGRSFELCIYTKHDEIAHQLADLKRRARQGDSDRFNRIIDELSKPELQAFAANRLRFEGRAKKRFIQKHVGSANLWQVIRHAEQFEAKNGYRFCEWMFKTLFHDLLESLKGEELELYNDSKIKQLLRDAYSTMTPKLEHHHHHH | soluble
